B1: Escherichia coli FtsA, full length (natural protein, E. coli, UniProt P0ABH0 1-420, looked up)
chain: MIKATDRKLVVGLEIGTAKVAALVGEVLPDGMVNIIGVGSCPSRGMDKGGVNDLESVVKCVQRAIDQAELMADCQISSVYLALSGKHISCQNEIGMVPISEEEVTQEDVENVVHTAKSVRVRDEHRVLHVIPQEYAIDYQEGIKNPVGLSGVRMQAKVHLITCHNDMAKNIVKAVERCGLKVDQLIFAGLASSYSVLTEDERELGVCVVDIGGGTMDIAVYTGGALRHTKVIPYAGNVVTSDIAYAFGTPPSDAEAIKVRHGCALGSIVGKDESVEVPSVGGRPPRSLQRQTLAEVIEPRYTELLNLVNEEILQLQEKLRQQGVKHHLAAGIVLTGGAAQIEGLAACAQRVFHTQVRIGAPLNITGLTDYAQEPYYSTAVGLLHYGKESHLNGEAEVEKRVTASVGSWIKRLNSWLRKEF
notes: FtsA, Escherichia coli, full-length protein; also called EcFtsA; E. coli FtsA; source: E. coli C41(DE3), purified (HisTrap, chitin resin with intein cleavage, SEC); not shown: intein-CBD-12H, C-terminal, cleaved
B2: Escherichia coli FtsA I143L (FtsN suppressor mutant), full length (natural protein, E. coli, UniProt P0ABH0 1-420, looked up)
chain: MIKATDRKLVVGLEIGTAKVAALVGEVLPDGMVNIIGVGSCPSRGMDKGGVNDLESVVKCVQRAIDQAELMADCQISSVYLALSGKHISCQNEIGMVPISEEEVTQEDVENVVHTAKSVRVRDEHRVLHVIPQEYAIDYQEGLKNPVGLSGVRMQAKVHLITCHNDMAKNIVKAVERCGLKVDQLIFAGLASSYSVLTEDERELGVCVVDIGGGTMDIAVYTGGALRHTKVIPYAGNVVTSDIAYAFGTPPSDAEAIKVRHGCALGSIVGKDESVEVPSVGGRPPRSLQRQTLAEVIEPRYTELLNLVNEEILQLQEKLRQQGVKHHLAAGIVLTGGAAQIEGLAACAQRVFHTQVRIGAPLNITGLTDYAQEPYYSTAVGLLHYGKESHLNGEAEVEKRVTASVGSWIKRLNSWLRKEF
notes: FtsA, Escherichia coli, full-length protein with I143L; also called EcFtsA^I143L; source: E. coli C41(DE3), purified (HisTrap, chitin resin with intein cleavage, SEC); not shown: intein-CBD-12H, C-terminal, cleaved
B3: Escherichia coli FtsA E124A (FtsN suppressor mutant), full length (natural protein, E. coli, UniProt P0ABH0 1-420, looked up)
chain: MIKATDRKLVVGLEIGTAKVAALVGEVLPDGMVNIIGVGSCPSRGMDKGGVNDLESVVKCVQRAIDQAELMADCQISSVYLALSGKHISCQNEIGMVPISEEEVTQEDVENVVHTAKSVRVRDAHRVLHVIPQEYAIDYQEGIKNPVGLSGVRMQAKVHLITCHNDMAKNIVKAVERCGLKVDQLIFAGLASSYSVLTEDERELGVCVVDIGGGTMDIAVYTGGALRHTKVIPYAGNVVTSDIAYAFGTPPSDAEAIKVRHGCALGSIVGKDESVEVPSVGGRPPRSLQRQTLAEVIEPRYTELLNLVNEEILQLQEKLRQQGVKHHLAAGIVLTGGAAQIEGLAACAQRVFHTQVRIGAPLNITGLTDYAQEPYYSTAVGLLHYGKESHLNGEAEVEKRVTASVGSWIKRLNSWLRKEF
notes: FtsA, Escherichia coli, full-length protein with E124A; also called EcFtsA^E124A; source: E. coli C41(DE3), purified (HisTrap, chitin resin with intein cleavage, SEC); not shown: intein-CBD-12H, C-terminal, cleaved
B4: Escherichia coli FtsA G50E (ZipA suppressor and filament architecture mutant), full length (natural protein, E. coli, UniProt P0ABH0 1-420, looked up)
chain: MIKATDRKLVVGLEIGTAKVAALVGEVLPDGMVNIIGVGSCPSRGMDKGEVNDLESVVKCVQRAIDQAELMADCQISSVYLALSGKHISCQNEIGMVPISEEEVTQEDVENVVHTAKSVRVRDEHRVLHVIPQEYAIDYQEGIKNPVGLSGVRMQAKVHLITCHNDMAKNIVKAVERCGLKVDQLIFAGLASSYSVLTEDERELGVCVVDIGGGTMDIAVYTGGALRHTKVIPYAGNVVTSDIAYAFGTPPSDAEAIKVRHGCALGSIVGKDESVEVPSVGGRPPRSLQRQTLAEVIEPRYTELLNLVNEEILQLQEKLRQQGVKHHLAAGIVLTGGAAQIEGLAACAQRVFHTQVRIGAPLNITGLTDYAQEPYYSTAVGLLHYGKESHLNGEAEVEKRVTASVGSWIKRLNSWLRKEF
notes: FtsA, Escherichia coli, full-length protein with G50E; also called EcFtsA^G50E; source: E. coli C41(DE3), purified (HisTrap, chitin resin with intein cleavage, SEC); not shown: intein-CBD-12H, C-terminal, cleaved

The data set concerns the molecule itself. Nature of the data set: negative stain electron microscopy on supported lipid monolayers; full-length FtsA at 0.1-0.2 mg/ml with 1 mM ATP, without or with FtsN peptide (up to 10-fold molar excess), on E. coli polar lipid monolayers; binding buffer pH 7.7.
As to B1, the binding result was “binds”. The entry for B2 is “binds”; for B3 it is “binds”.

Regarding B4, the binding result is reported as “binds”.

Values taken from article doi:10.1101/2021.11.08.467742 (bioRxiv, 2021).
